Data from PMC9482650, “Quantitative fragmentomics allow affinity mapping of interactomes” (Nature Communications, 2022).

Tests used:
Assay in all cases: holdup assay
Set-up in all cases: key: below the threshold = too weak to quantify, mostly under pKd 3.1 to 4
APBA1_2, Q02410 = biological target: T1, APBA1_2, Q02410
T1 sequence (Q02410 742-832, limits assumed, looked up): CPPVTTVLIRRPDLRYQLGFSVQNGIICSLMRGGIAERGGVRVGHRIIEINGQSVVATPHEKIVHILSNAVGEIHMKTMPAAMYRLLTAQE

APBA2_1, Q99767 = biological target: T2, APBA2_1, Q99767
T2 sequence (Q99767 563-664, limits assumed, looked up): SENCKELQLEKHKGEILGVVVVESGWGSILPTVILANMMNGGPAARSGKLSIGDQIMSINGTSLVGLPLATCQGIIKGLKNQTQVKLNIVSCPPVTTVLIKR

APBA3_1, O96018 = biological target: T3, APBA3_1, O96018
T3 sequence (O96018 389-490, limits assumed, looked up): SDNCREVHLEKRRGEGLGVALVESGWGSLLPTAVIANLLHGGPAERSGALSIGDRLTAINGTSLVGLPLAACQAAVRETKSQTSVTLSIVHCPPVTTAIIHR

DFNB31_3, Q9P202 = biological target: T4, DFNB31_3, Q9P202
T4 sequence (Q9P202 811-907, limits assumed, looked up): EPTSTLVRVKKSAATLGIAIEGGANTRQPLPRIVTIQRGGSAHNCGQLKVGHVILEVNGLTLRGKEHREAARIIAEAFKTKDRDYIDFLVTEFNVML

DLG2_2, Q15700 = biological target: DLG2_2, Q15700
DVL3, Q92997 = biological target: T5, DVL3, Q92997
T5 sequence (Q92997 244-331, limits assumed, looked up): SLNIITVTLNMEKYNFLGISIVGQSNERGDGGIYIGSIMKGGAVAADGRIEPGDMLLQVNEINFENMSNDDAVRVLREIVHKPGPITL

FRMPD2_3, Q68DX3 = biological target: FRMPD2_3, Q68DX3
GIPC2, Q8TF65 = biological target: GIPC2, Q8TF65
GRIP1_3, Q9Y3R0 = biological target: T6, GRIP1_3, Q9Y3R0
T6 sequence (Q9Y3R0 247-346, limits assumed, looked up): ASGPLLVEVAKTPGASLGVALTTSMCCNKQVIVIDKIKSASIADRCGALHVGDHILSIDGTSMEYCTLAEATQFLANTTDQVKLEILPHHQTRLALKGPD

GRIP2_7, Q9C0E4 = biological target: GRIP2_7, Q9C0E4
HTRA3, P83110 = biological target: T7, HTRA3, P83110
T7 sequence (P83110 354-453, limits assumed, looked up): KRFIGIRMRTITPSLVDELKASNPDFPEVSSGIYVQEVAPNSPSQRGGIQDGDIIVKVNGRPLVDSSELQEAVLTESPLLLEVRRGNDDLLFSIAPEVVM

IL16_3, Q14005 = biological target: IL16_3, Q14005
Inadl_5, Q8NI35 = biological target: Inadl_5, Q8NI35
Inadl_9, Q8NI35 = biological target: Inadl_9, Q8NI35
LNX1_1, Q8TBB1 = biological target: LNX1_1, Q8TBB1
LNX2_3, Q8N448 = biological target: T8, LNX2_3, Q8N448
T8 sequence (Q8N448 463-564, limits assumed, looked up): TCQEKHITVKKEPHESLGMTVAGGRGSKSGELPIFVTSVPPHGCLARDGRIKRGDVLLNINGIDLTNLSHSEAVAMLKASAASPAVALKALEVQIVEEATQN

LRRC7, Q96NW7 = biological target: T9, LRRC7, Q96NW7
T9 sequence (Q96NW7 1440-1537, limits assumed, looked up): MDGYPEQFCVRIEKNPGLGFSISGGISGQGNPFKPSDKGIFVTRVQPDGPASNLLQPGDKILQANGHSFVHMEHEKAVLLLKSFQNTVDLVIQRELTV

MAST1, Q9Y2H9 = biological target: MAST1, Q9Y2H9
NHERF3_3, Q5T2W1 = biological target: T10, NHERF3_3, Q5T2W1
T10 sequence (Q5T2W1 238-333, limits assumed, looked up): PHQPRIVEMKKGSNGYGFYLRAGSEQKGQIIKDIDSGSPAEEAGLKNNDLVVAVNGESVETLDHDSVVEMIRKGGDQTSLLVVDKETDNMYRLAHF

NHERF3_4, Q5T2W1 = biological target: T11, NHERF3_4, Q5T2W1
T11 sequence (Q5T2W1 373-468, limits assumed, looked up): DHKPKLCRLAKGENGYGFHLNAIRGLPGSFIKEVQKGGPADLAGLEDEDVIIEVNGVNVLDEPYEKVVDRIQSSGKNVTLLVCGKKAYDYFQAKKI

PDZD2_2, O15018 = biological target: T12, PDZD2_2, O15018
T12 sequence (O15018 329-429, limits assumed, looked up): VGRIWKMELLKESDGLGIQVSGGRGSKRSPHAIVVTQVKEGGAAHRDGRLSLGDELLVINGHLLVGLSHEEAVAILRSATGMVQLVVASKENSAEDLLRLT

PDZD7_3, Q9H5P4 = biological target: T13, PDZD7_3, Q9H5P4
T13 sequence (Q9H5P4 857-944, limits assumed, looked up): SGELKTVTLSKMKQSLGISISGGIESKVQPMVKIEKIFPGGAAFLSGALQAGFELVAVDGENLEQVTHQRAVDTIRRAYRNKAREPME

TJP1_3, Q07157 = biological target: TJP1_3, Q07157
TJP3_3, O95049 = biological target: T14, TJP3_3, O95049
T14 sequence (O95049 375-456, limits assumed, looked up): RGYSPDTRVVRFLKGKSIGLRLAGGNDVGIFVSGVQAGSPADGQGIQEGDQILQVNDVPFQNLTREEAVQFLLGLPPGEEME

[1] = modified: phospho on T at position -2 from the C-terminal residue
[2] = plain residues with an end cap or a label only (N-terminal biotin on a linker: ado-ado)

Sequence of GRIP2_7, Q9C0E4 (Q9C0E4 934-1023): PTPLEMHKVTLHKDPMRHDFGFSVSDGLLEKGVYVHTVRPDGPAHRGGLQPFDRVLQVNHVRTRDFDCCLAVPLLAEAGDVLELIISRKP
Sequence of GIPC2, Q8TF65 (Q8TF65 112-203): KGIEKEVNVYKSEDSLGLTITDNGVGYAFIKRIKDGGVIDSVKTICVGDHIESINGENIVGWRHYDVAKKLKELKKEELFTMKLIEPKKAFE
Sequence of IL16_3, Q14005 (Q14005 1107-1207): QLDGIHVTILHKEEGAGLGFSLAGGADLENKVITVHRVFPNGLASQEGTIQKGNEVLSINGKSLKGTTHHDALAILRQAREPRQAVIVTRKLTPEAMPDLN
Sequence of LNX1_1, Q8TBB1 (Q8TBB1 261-371): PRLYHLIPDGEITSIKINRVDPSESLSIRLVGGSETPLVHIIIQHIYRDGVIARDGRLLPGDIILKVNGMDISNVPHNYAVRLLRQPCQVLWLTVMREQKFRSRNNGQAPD
Sequence of Inadl_9, Q8NI35 (Q8NI35 1530-1615): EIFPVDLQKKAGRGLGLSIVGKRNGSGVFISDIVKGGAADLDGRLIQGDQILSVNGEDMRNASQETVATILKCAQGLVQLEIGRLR
Sequence of TJP1_3, Q07157 (Q07157 416-512): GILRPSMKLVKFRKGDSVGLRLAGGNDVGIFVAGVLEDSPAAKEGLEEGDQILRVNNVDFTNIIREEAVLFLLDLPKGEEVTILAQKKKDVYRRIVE
Sequence of MAST1, Q9Y2H9 (Q9Y2H9 962-1065): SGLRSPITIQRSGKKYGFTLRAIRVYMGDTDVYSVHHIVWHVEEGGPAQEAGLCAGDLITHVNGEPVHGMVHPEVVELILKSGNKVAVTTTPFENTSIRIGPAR
Sequence of FRMPD2_3, Q68DX3 (Q68DX3 1073-1166): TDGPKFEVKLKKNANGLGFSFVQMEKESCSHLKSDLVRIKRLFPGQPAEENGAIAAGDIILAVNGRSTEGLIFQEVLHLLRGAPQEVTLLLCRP
Sequence of Inadl_5, Q8NI35 (Q8NI35 673-780): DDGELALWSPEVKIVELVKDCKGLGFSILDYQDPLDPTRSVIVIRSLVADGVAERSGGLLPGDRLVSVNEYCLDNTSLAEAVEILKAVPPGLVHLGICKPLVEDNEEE
Sequence of DLG2_2, Q15700 (Q15700 189-283): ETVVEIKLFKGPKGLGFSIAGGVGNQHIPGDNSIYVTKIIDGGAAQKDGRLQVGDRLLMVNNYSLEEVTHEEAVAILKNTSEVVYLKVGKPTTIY

## RLQRRRETQV [HPV18-E6_-2P, P06463]
APBA1_2, Q02410; [1]
  pKd: below the threshold
APBA2_1, Q99767; [1]
  pKd: below the threshold
APBA3_1, O96018; [1]
  pKd: below the threshold
DFNB31_3, Q9P202; [1]
  pKd: 3.9
DLG2_2, Q15700; [1]
  pKd: 3.48
DVL3, Q92997; [1]
  pKd: below the threshold
FRMPD2_3, Q68DX3; [1]
  pKd: below the threshold
GIPC2, Q8TF65; [1]
  pKd: below the threshold
GRIP1_3, Q9Y3R0; [1]
  pKd: below the threshold
GRIP2_7, Q9C0E4; [1]
  pKd: below the threshold
HTRA3, P83110; [1]
  pKd: below the threshold
IL16_3, Q14005; [1]
  pKd: below the threshold
Inadl_5, Q8NI35; [1]
  pKd: below the threshold
Inadl_9, Q8NI35; [1]
  pKd: below the threshold
LNX1_1, Q8TBB1; [1]
  pKd: below the threshold
LNX2_3, Q8N448; [1]
  pKd: below the threshold
LRRC7, Q96NW7; [1]
  pKd: below the threshold
MAST1, Q9Y2H9; [1]
  pKd: below the threshold
NHERF3_3, Q5T2W1; [1]
  pKd: below the threshold
NHERF3_4, Q5T2W1; [1]
  pKd: below the threshold
PDZD2_2, O15018; [1]
  pKd: below the threshold
PDZD7_3, Q9H5P4; [1]
  pKd: below the threshold
TJP1_3, Q07157; [1]
  pKd: below the threshold
TJP3_3, O95049; [1]
  pKd: below the threshold

## SSALYGESDL [ACTN2, P35609]
APBA1_2, Q02410; [2]
  pKd: below the threshold
APBA2_1, Q99767; [2]
  pKd: below the threshold
APBA3_1, O96018; [2]
  pKd: below the threshold
DFNB31_3, Q9P202; [2]
  pKd: 3.64
DLG2_2, Q15700; [2]
  pKd: 3.52
DVL3, Q92997; [2]
  pKd: below the threshold
FRMPD2_3, Q68DX3; [2]
  pKd: below the threshold
GIPC2, Q8TF65; [2]
  pKd: 4.09
GRIP1_3, Q9Y3R0; [2]
  pKd: below the threshold
GRIP2_7, Q9C0E4; [2]
  pKd: below the threshold
HTRA3, P83110; [2]
  pKd: below the threshold
IL16_3, Q14005; [2]
  pKd: below the threshold
Inadl_5, Q8NI35; [2]
  pKd: below the threshold
Inadl_9, Q8NI35; [2]
  pKd: below the threshold
LNX1_1, Q8TBB1; [2]
  pKd: 3.86
LNX2_3, Q8N448; [2]
  pKd: below the threshold
LRRC7, Q96NW7; [2]
  pKd: 3.86
MAST1, Q9Y2H9; [2]
  pKd: 4.18
NHERF3_3, Q5T2W1; [2]
  pKd: below the threshold
NHERF3_4, Q5T2W1; [2]
  pKd: below the threshold
PDZD2_2, O15018; [2]
  pKd: below the threshold
PDZD7_3, Q9H5P4; [2]
  pKd: below the threshold
TJP1_3, Q07157; [2]
  pKd: below the threshold
TJP3_3, O95049; [2]
  pKd: below the threshold

## NLSIEKETKL [ASNSD1, Q9NWL6]
APBA1_2, Q02410; [2]
  pKd: below the threshold
APBA2_1, Q99767; [2]
  pKd: below the threshold
APBA3_1, O96018; [2]
  pKd: below the threshold
DFNB31_3, Q9P202; [2]
  pKd: 3.52
DLG2_2, Q15700; [2]
  pKd: 3.5
DVL3, Q92997; [2]
  pKd: below the threshold
FRMPD2_3, Q68DX3; [2]
  pKd: below the threshold
GIPC2, Q8TF65; [2]
  pKd: below the threshold
GRIP1_3, Q9Y3R0; [2]
  pKd: below the threshold
GRIP2_7, Q9C0E4; [2]
  pKd: below the threshold
HTRA3, P83110; [2]
  pKd: below the threshold
IL16_3, Q14005; [2]
  pKd: below the threshold
Inadl_5, Q8NI35; [2]
  pKd: below the threshold
Inadl_9, Q8NI35; [2]
  pKd: below the threshold
LNX1_1, Q8TBB1; [2]
  pKd: below the threshold
LNX2_3, Q8N448; [2]
  pKd: below the threshold
LRRC7, Q96NW7; [2]
  pKd: below the threshold
MAST1, Q9Y2H9; [2]
  pKd: 4.73
NHERF3_3, Q5T2W1; [2]
  pKd: 4.67
NHERF3_4, Q5T2W1; [2]
  pKd: 4.13
PDZD2_2, O15018; [2]
  pKd: 3.83
PDZD7_3, Q9H5P4; [2]
  pKd: 4.68
TJP1_3, Q07157; [2]
  pKd: below the threshold
TJP3_3, O95049; [2]
  pKd: below the threshold
